# Measured values taken from paper PMC2731525.
# Molecular target: biglycan (UniProt P21810)
# Experiment: solid-phase binding assay
# Chain of UniProt P21810 (P21810 38-368): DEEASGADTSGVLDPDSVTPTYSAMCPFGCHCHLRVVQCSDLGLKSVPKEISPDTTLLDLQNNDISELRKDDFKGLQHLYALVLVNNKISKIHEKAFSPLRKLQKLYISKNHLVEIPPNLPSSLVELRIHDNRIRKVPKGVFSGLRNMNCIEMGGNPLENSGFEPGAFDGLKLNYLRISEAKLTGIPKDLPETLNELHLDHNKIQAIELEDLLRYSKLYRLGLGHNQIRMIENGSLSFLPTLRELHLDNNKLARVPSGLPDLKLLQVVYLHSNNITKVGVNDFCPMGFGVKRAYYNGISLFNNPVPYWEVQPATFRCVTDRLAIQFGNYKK
row,Kd [µM],Substance
1,0.0086,LDL with high apoCIII from patients with type 2 diabetes (from UniProt P02656 21-99) (complex)
2,0.0122,LDL with low apoCIII from patients with type 2 diabetes (from UniProt P02656 21-99) (complex)
3,0.0098,apoCIII-free LDL isolated from diabetic LDL with high apoCIII/apoB molar ratio (natural protein)
4,0.0128,apoCIII-free LDL isolated from diabetic LDL with low apoCIII/apoB molar ratio (natural protein)
